Source: the supplement of paper PMC10567573

B1: CDC25B (parent)
chain: ELKTFRLKTRSWAGERSRRELCSR
B2: CDS2 (parent)
chain: IHSIALSTFASLIGPFGGFFASGF

Variants of: B1
Test: protein stability index of a GFP-peptide fusion (GPS, HEK-293T) (PSI 1-6); higher = more stable
Conditions: c terminus: a fixed tail appended
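Note: lentivirally expressed fusions sorted by FACS into six bins by GFP to DsRed ratio, PSI derived from sequencing read proportions per bin multiplied by bin number.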

Protein stability index, by site and new letter:
S17: P 3.35; Q 3.35; R 2.63; T 3.33; V 2.36; W 2.16; Y 3.27
R18: A 3.85; C 2.23; D 3.4; E 3.52; F 2.62; G 2.95; H 3.33; I 3.04; K 3.36; L 3.23; M 3.36; N 3.18; P 3.64; Q 4.01; S 3.85; T 3.38; V 3.6; W 2.84; Y 2.58
R19: A 4.2; C 2.25; D 2.88; E 3.66; F 2.49; G 3.46; H 3.13; I 2.57; K 3.26; L 3.2; M 3; N 3.38; P 2.98; Q 3.45; S 3.28; T 2.57; V 2.74; W 2.02; Y 3.51
E20: A 3.25; C 2.72; D 2.98; F 2.52; G 2.65; H 3.52; I 2.66; K 3.47; L 2.42; M 3.25; N 3.42; P 3.08; Q 3.53; R 2.78; S 2.92; T 2.88; V 2.9; W 2.57; Y 2.69
L21: A 3.91; C 3.66; D 3.98; E 3.6; F 3.12; G 3.75; H 3.31; I 2.81; K 3.76; M 3.33; N 3.35; P 3.99; Q 3.15; R 3.37; S 3.9; T 3.84; V 3.71; W 2.55; Y 3.61
C22: A 3.36; D 3.27; E 3.65; F 3.01; G 4.06; H 3.42; I 3.33; K 3.57; L 2.79; M 2.96; N 4.04; P 3.01; Q 3.26; R 4.04; S 3.25; T 3.48; V 3.54; W 2.89; Y 2.6
S23: A 3.02; C 3.05; D 4.21; E 3.53; F 3.03; G 3.44; H 3.13; I 2.95; K 3.62; L 3.35; M 3.26; N 3.8; P 3.26; Q 3.39; R 2.87; T 3.89; V 2.25; W 2.69; Y 3.83
R24: A 2.72; C 2.9; D 2.91; E 3.39; F 1.85; G 2.59; H 3.3; I 2.86; K 3.38; L 3; M 2.34; N 3.38; P 2.82; Q 3.23; S 3.28; T 2.73; V 2.7; W 2.58; Y 2.33

Variants of: B2
Test: as above
Conditions: c terminus: a fixed tail appended

Protein stability index, by site and new letter:
G23: L 1.42; E 4.01
F9: S 3.33; P 2.63
F19: N 3.42
A5: K 3.47; I 3.04; Y 2.88
F20: C 4.04
G18: L 2.48; N 2.01
F24: G 4.4
G14: K 3.34; C 2.05
I4: M 2.86; Y 2.14
S3: N 4.17; F 3.44
A10: L 2.98; E 3.6
P15: A 2.41
S11: N 2.33
L6: I 3.38
H2: C 4.54; S 2.03
F16: T 2.92
T8: G 2.63
